B1: alpha 2‐antiplasmin (natural protein)
chain: NQEQVSPLTLLKLGNQEPGGQTALKSPPGVCSRDPTPEQTHRLARAMMAFTADLFSLVAQTSTCPNLILSPLSVALALSHLALGAQNHTLQRLQQVLHAGSGPCLPHLLSRLCQDLGPGAFRLAARMYLQKGFPIKEDFLEQSEQLFGAKPVSLTGKQEDDLANINQWVKEATEGKIQEFLSGLPEDTVLLLLNAIHFQGFWRNKFDPSLTQRDSFHLDEQFTVPVEMMQARTYPLRWFLLEQPEIQVAHFPFKNNMSFVVLVPTHFEWNVSQVLANLSWDTLHPPLVWERPTKVRLPKLYLKHQMDLVATLSQLGLQELFQAPDLRGISEQSLVVSGVQHQSTLELSEVGVEAAAATSIAMSRMSLSSFSVNRPFLFFIFEDTTGLPLFVGSVRNPNPSAPRELKEQQDSPGNKDFLQSLKGFPRGDKLFGPDLKLVPPMEEDYPQFGSPK

Columns and labels:
[1] = target: SK2aG88‐Pm complex (streptokinase of group G Streptococcus G88 with plasmin) (group G Streptococcus (GGS) strain G88 | human)
[2] = target: SK2bALAB49‐Pm complex (streptokinase of group A Streptococcus ALAB49 with plasmin) (group A Streptococcus (GAS) strain ALAB49 | human)
[3] = target: SKC1 (2aG88‐2b_(ALAB)‐2aG88)‐Pm complex (group G Streptococcus (GGS) strain G88 | group A Streptococcus (GAS) strain ALAB49 | human)
[4] = target: SKC2 (2b_(ALAB)‐2aG88‐2b_(ALAB))‐Pm complex (group A Streptococcus (GAS) strain ALAB49 | group G Streptococcus (GGS) strain G88 | human)
[5] = target: SK2aG88‐Pm complex (streptokinase of group G Streptococcus G88 with plasmin) (group G Streptococcus (GGS) strain G88 | human); remark: listed apart in the source
[6] = target: SK2bALAB49‐Pm complex (streptokinase of group A Streptococcus ALAB49 with plasmin) (group A Streptococcus (GAS) strain ALAB49 | human); remark: listed apart in the source
[7] = target: SKC1 (2aG88‐2b_(ALAB)‐2aG88)‐Pm complex (group G Streptococcus (GGS) strain G88 | group A Streptococcus (GAS) strain ALAB49 | human); remark: listed apart in the source
[8] = target: SKC2 (2b_(ALAB)‐2aG88‐2b_(ALAB))‐Pm complex (group A Streptococcus (GAS) strain ALAB49 | group G Streptococcus (GGS) strain G88 | human); remark: listed apart in the source

| Molecule | K m of the proteolytic activity (substrate affinity): 100 nM SK, Pg 0.3–5.0 µM as substrate, 0.1 mM S2251, absorbance at 405 nM [1] | K m of the proteolytic activity (substrate affinity): 100 nM SK, Pg 0.3–5.0 µM as substrate, 0.1 mM S2251, absorbance at 405 nM [2] | K m of the proteolytic activity (substrate affinity): 100 nM SK, Pg 0.3–5.0 µM as substrate, 0.1 mM S2251, absorbance at 405 nM [3] | K m of the proteolytic activity (substrate affinity): 100 nM SK, Pg 0.3–5.0 µM as substrate, 0.1 mM S2251, absorbance at 405 nM [4] | retained activity (S‐2251 hydrolysis) of the SK‐Pm complex (20 nM) after 15 min with α2‐AP 100–400 nM, relative to no inhibitor; value at 400 nM [5] | retained activity (S‐2251 hydrolysis) of the SK‐Pm complex (20 nM) after 15 min with α2‐AP 100–400 nM, relative to no inhibitor; value at 400 nM [6] | retained activity (S‐2251 hydrolysis) of the SK‐Pm complex (20 nM) after 15 min with α2‐AP 100–400 nM, relative to no inhibitor; value at 400 nM [7] | retained activity (S‐2251 hydrolysis) of the SK‐Pm complex (20 nM) after 15 min with α2‐AP 100–400 nM, relative to no inhibitor; value at 400 nM [8] |
| --- | --- | --- | --- | --- | --- | --- | --- | --- |
| plasminogen (natural protein) | 0.77 µM | 7.92 µM | 2.05 µM | 3.45 µM |  |  |  |  |
| B1 |  |  |  |  | 80% | 50% | 50% | 80% |

Source: publication PMC6609762
